Experimental data from paper PMC4355076 (Molecular cell, 2015).

Key:
[1] = molecular target: T1, human UCH37 isoform 1, co-expressed with NFRKB (human, UniProt Q9Y5K5 1-329); assay: cell-based or functional assay
T1 sequence (looked up): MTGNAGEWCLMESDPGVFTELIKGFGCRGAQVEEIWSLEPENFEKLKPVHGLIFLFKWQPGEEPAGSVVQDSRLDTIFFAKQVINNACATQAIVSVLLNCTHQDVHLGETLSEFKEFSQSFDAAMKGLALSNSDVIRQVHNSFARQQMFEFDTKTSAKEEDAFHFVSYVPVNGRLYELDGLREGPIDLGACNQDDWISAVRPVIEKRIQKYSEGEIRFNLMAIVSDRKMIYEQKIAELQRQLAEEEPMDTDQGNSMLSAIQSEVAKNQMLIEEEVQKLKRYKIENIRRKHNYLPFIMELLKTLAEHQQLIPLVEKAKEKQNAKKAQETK

[2] = molecular target: the molecule itself; assay: AUC
[3] = molecular target: T2, human UCH37 (isoform 1), full-length (human, UniProt Q9Y5K5 1-329); assay: cell-based or functional assay
T2 sequence (looked up): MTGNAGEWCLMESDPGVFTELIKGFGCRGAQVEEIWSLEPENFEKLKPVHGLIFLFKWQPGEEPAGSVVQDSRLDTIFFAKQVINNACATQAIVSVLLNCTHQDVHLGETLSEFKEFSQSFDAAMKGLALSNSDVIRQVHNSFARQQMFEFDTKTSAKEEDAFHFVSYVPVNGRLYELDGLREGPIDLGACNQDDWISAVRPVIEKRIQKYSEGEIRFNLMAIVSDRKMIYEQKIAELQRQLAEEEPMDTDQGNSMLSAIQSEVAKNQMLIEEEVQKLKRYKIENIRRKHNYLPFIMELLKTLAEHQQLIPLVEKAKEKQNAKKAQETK

[4] = molecular target: T3, UCH37(M148A,F149A) (human, UniProt Q9Y5K5 1-329, M148A | F149A); assay: cell-based or functional assay
T3 sequence (looked up): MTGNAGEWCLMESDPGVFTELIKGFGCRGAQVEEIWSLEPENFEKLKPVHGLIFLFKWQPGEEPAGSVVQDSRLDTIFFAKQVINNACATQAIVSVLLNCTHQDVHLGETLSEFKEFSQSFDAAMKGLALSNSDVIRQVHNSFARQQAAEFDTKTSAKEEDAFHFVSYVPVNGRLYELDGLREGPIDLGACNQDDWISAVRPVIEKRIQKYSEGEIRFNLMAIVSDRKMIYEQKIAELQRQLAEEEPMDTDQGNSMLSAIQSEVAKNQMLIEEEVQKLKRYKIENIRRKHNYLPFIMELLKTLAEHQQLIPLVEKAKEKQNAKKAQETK

[5] = molecular target: T4, human UCH37 isoform 2 (human, UniProt Q9Y5K5 1-329, deleting the codon for E246); assay: cell-based or functional assay
T4 sequence (looked up): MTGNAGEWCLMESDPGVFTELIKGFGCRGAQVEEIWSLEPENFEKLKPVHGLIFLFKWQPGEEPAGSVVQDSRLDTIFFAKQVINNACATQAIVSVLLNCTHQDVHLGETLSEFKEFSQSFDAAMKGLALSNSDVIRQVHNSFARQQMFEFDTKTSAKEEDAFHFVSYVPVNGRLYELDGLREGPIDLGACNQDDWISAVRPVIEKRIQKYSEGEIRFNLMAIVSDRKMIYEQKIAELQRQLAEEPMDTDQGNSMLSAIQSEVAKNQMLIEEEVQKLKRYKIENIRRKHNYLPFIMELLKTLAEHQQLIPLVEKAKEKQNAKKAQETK

[6] = molecular target: human ubiquitin (human, UniProt P0CG48 1-76); assay: cell-based or functional assay

B1: NFRKB^1-156 (domain or fragment, human, UniProt Q6P4R8 1-156, looked up)
chain: MDSLDHMLTDPLELGPCGDGHGTRIMEDCLLGGTRVSLPEDLLEDPEIFFDVVSLSTWQEVLSDSQREHLQQFLPQFPEDSAEQQNELILALFSGENFRFGNPLHIAQKLFRDGHFNPEVVKYRQLCFKSQYKRYLNSQQQYFHRLLKQILASRSD
kcat of ubiquitin-AMC hydrolysis by the UCH37/NFRKB^1-156 complex [1]: 0.1 s⁻¹ | kcat/Km of ubiquitin-AMC hydrolysis by the UCH37/NFRKB^1-156 complex [1]: 0.006 s^−1μM^−1

B2: NFRKB^1-156(^97GSGS^100) (domain or fragment, human, UniProt Q6P4R8 1-156, looked up)
chain: MDSLDHMLTDPLELGPCGDGHGTRIMEDCLLGGTRVSLPEDLLEDPEIFFDVVSLSTWQEVLSDSQREHLQQFLPQFPEDSAEQQNELILALFSGEGSGSGNPLHIAQKLFRDGHFNPEVVKYRQLCFKSQYKRYLNSQQQYFHRLLKQILASRSD
kcat of ubiquitin-AMC hydrolysis by the UCH37/NFRKB^1-156(^97GSGS^100) complex [1]: 5.94 s⁻¹

B3: NFRKB^1-117 (domain or fragment, human, UniProt Q6P4R8 1-117, looked up)
chain: MDSLDHMLTDPLELGPCGDGHGTRIMEDCLLGGTRVSLPEDLLEDPEIFFDVVSLSTWQEVLSDSQREHLQQFLPQFPEDSAEQQNELILALFSGENFRFGNPLHIAQKLFRDGHFN
kcat of ubiquitin-AMC hydrolysis by the UCH37/NFRKB^1-117 complex [1]: 0.15 s⁻¹ | kcat/Km of ubiquitin-AMC hydrolysis by the UCH37/NFRKB^1-117 complex [1]: 0.005 s^−1μM^−1

B4: UCH37(M269E,N291D) (enzyme, human, UniProt Q9Y5K5 1-329, looked up)
chain: MTGNAGEWCLMESDPGVFTELIKGFGCRGAQVEEIWSLEPENFEKLKPVHGLIFLFKWQPGEEPAGSVVQDSRLDTIFFAKQVINNACATQAIVSVLLNCTHQDVHLGETLSEFKEFSQSFDAAMKGLALSNSDVIRQVHNSFARQQMFEFDTKTSAKEEDAFHFVSYVPVNGRLYELDGLREGPIDLGACNQDDWISAVRPVIEKRIQKYSEGEIRFNLMAIVSDRKMIYEQKIAELQRQLAEEEPMDTDQGNSMLSAIQSEVAKNQELIEEEVQKLKRYKIENIRRKHDYLPFIMELLKTLAEHQQLIPLVEKAKEKQNAKKAQETK
Kd [2]: 49 µM

B5: NFRKB^39-156 (domain or fragment, human, UniProt Q6P4R8 39-156, looked up)
chain: PEDLLEDPEIFFDVVSLSTWQEVLSDSQREHLQQFLPQFPEDSAEQQNELILALFSGENFRFGNPLHIAQKLFRDGHFNPEVVKYRQLCFKSQYKRYLNSQQQYFHRLLKQILASRSD
kcat of ubiquitin-AMC hydrolysis by the UCH37/NFRKB^39-156 complex [1]: 0.25 s⁻¹ | kcat/Km of ubiquitin-AMC hydrolysis by the UCH37/NFRKB^39-156 complex [1]: 0.009 s^−1μM^−1

B6: human RPN13^285-407 (domain or fragment)
chain: GSWTQVDLASVLTPEIMAPILANADVQERLLPYLPSGESLPQTADEIQNTLTSPQFQQALGMFSAALASGQLGPLMCQFGLPAEAVEAANKGDVEAFAKAMQNNAKPEQKEGDTKDKKDEEEDMSLD
kcat of ubiquitin-AMC hydrolysis by the UCH37/RPN13^285-407 complex [3]: 5 s⁻¹ | kcat/Km of ubiquitin-AMC hydrolysis by the UCH37/RPN13^285-407 complex [3]: 1.6 s^−1μM^−1 | kcat of ubiquitin-AMC hydrolysis by the UCH37(M148A,F149A)/RPN13^285-407 complex [4]: 4.7 s⁻¹ | kcat of ubiquitin-AMC hydrolysis by the UCH37(isoform2)/RPN13^285-407 complex [5]: 4.7 s⁻¹ | kcat/Km of ubiquitin-AMC hydrolysis by the UCH37(isoform2)/RPN13^285-407 complex [5]: 1.4 s^−1μM^−1

B7: RPN13(Q337A,Q338A)^285-407 (domain or fragment, human)
chain: GSWTQVDLASVLTPEIMAPILANADVQERLLPYLPSGESLPQTADEIQNTLTSPQFAAALGMFSAALASGQLGPLMCQFGLPAEAVEAANKGDVEAFAKAMQNNAKPEQKEGDTKDKKDEEEDMSLD
kcat of ubiquitin-AMC hydrolysis by the UCH37/RPN13(Q337A,Q338A)^285-407 complex [6]: 4.7 s⁻¹
